± gives the standard deviation of the averaged measurements.
B1: library; a variant is named by its letters at N, in order (parent)
chain: GCUGUCACCGGUGUAUUACCCUAGUGGUCGACCGGUCUGAUGAGUCUNNNNNNAGACGAAACAGC

Experiments:
hypoxanthine [1] = variants of: B1; test: FACS-Seq fitted mean relative fluorescence mCherry/BFP without ligand (log10 relative fluorescence); ligand: hypoxanthine (xanthine aptamer); higher = higher reporter protein expression; settings: HEK293T, ligand present: no
Outline: (§1)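 Cells were sorted into 6 bins on the mCherry/BFP ratio after 48 h with or without ligand. These were enriched HEK293T cells transduced by lentivirus with a ribozyme-switch mCherry reporter plus an EF1α-BFP marker. Fluorescence was obtained by fitting a normal distribution to sequencing-derived bin counts. Counts came from MiSeq sequencing of PCR-amplified, barcoded genomic DNA, binned by log10(mCherry/BFP), with means scaled to five spiked-in control ribozymes.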

hypoxanthine [2] = variants of: B1; test: normalized RNA/DNA level with ligand (relative to sTRSVctl = 100) (log10 (% of sTRSVctl)); ligand: hypoxanthine (xanthine aptamer); higher = less ribozyme self-cleavage, higher mRNA level; settings: ligand concentration (+) RNA-Seq: 5 mM, HEK293T, reporter: mCherry (pCS4076), ligand present: yes
Protocol: (§2)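 Hammerhead (sTRSV) ribozyme switch libraries with a ligand aptamer grafted on stem I and a randomized N4-6 loop II, cloned into the 3' UTR of mCherry and transiently transfected into HEK293T cells; RNA-Seq 72 h post transfection with ligand added 1 h before transfection; RNA read count / plasmid DNA read count normalized to the non-cleaving sTRSVctl (x100), log10; sequences with >100 DNA reads. FACS-Seq: lentiviral library sorted into 6 bins after 48 h ligand, log-normal fit mean of mCherry/BFP scaled to controls. Printed sequences are partial switch sequences.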

hypoxanthine [3] = variants of: B1; test: normalized RNA/DNA level without ligand (relative to sTRSVctl = 100) (log10 (% of sTRSVctl)); ligand: hypoxanthine (xanthine aptamer); higher = less ribozyme self-cleavage, higher mRNA level; settings: HEK293T, reporter: mCherry (pCS4076), ligand present: no
Protocol: as §2

hypoxanthine [4] = variants of: B1; test: FACS-Seq fitted mean relative fluorescence mCherry/BFP with ligand (log10 relative fluorescence); ligand: hypoxanthine (xanthine aptamer); ligand concentration (+) FACS-Seq: 5 mM; higher = higher reporter protein expression; settings: HEK293T, ligand present: yes
Outline: as §1

Variant | FACS-Seq fitted mean (log10) (hypoxanthine [1]) | normalized RNA/DNA level with ligand (log10) (hypoxanthine [2]) | normalized RNA/DNA level without ligand (log10) (hypoxanthine [3]) | FACS-Seq fitted mean (log10) (hypoxanthine [4])
CCGACU | 0.195 ± 0.058 | 1.989 ± 0.013 | 1.82 ± 0.038 | 0.381 ± 0.0067
CGAGAG | 0.304 ± 0.055 | 1.9 ± 0.078 | 1.71 ± 0.032 | 0.258 ± 0.014
GAAACG | 0.287 ± 0.024 | 1.88 ± 0.023 | 1.51 ± 0.048 | 0.561 ± 0.048
GGCGUG | 0.107 ± 0.021 | 1.91 ± 0.088 | 1.52 ± 0.022 | 0.291 ± 0.076
GAAUCA | 0.438 ± 0.055 | 1.94 ± 0.065 | 1.809 ± 0.013 | 0.46 ± 0.066
ACGACU | 0.28 ± 0.024 | 1.84 ± 0.039 | 1.59 ± 0.0056 | 0.447 ± 0.037
UCGCCU | -0.0175 ± 0.065 | 2.036 ± 0.016 | 1.89 ± 0.062 | 0.035 ± 0.011
CGUGGG | 0.0862 ± 0.026 | 1.85 ± 0.022 | 1.3 ± 0.078 | 0.505 ± 0.047
UCGGCG | 0.493 ± 0.023 | 1.982 ± 0.0021 | 1.8 ± 0.03 | 0.666 ± 0.025
UAUCAA | 0.456 ± 0.02 | 1.91 ± 0.029 | 1.81 ± 0.021 | 0.414 ± 0.055
GAGUAG | -0.0875 ± 0.065 | 1.57 ± 0.033 | 1.13 ± 0.05 | 0.421 ± 0.051
GAGUAU | 0.3631 ± 0.0016 | 1.913 ± 0.0071 | 1.69 ± 0.021 | 0.472 ± 0.017
ACUAGA | 0.305 ± 0.02 | 1.919 ± 0.0065 | 1.73 ± 0.032 | 0.429 ± 0.0044
GGUAAG | 0.176 ± 0.027 | 1.744 ± 0.013 | 1.25 ± 0.054 | 0.6778 ± 0.0029
AAAUUC | 0.489 ± 0.043 | 1.95 ± 0.041 | 1.87 ± 0.033 | 0.603 ± 0.015
UAAAGG | 0.355 ± 0.035 | 1.84 ± 0.023 | 1.45 ± 0.05 | 0.675 ± 0.094
GUGUUG | 0.222 ± 0.012 | 1.83 ± 0.048 | 1.34 ± 0.11 | 0.559 ± 0.033
AUUAAA | 0.84 ± 0.0057 | 1.89 ± 0.045 | 1.78 ± 0.021 | 0.732 ± 0.092
CCAACU | 0.611 ± 0.037 | 2.02 ± 0.025 | 1.945 ± 0.012 | 0.58 ± 0.015
GCAGGA | 0.661 ± 0.024 | 1.9091 ± 0.0012 | 1.72 ± 0.035 | 0.705 ± 0.051
CUGACC | 0.127 ± 0.042 | 1.99 ± 0.037 | 1.91 ± 0.026 | 0.416 ± 0.008
AUUGGG | 0.0996 ± 0.0053 | 1.87 ± 0.085 | 1.36 ± 0.03 | 0.592 ± 0.018
GACAUG | 0.405 ± 0.11 | 1.81 ± 0.032 | 1.4 ± 0.0058 | 0.472 ± 0.081
UAUCGG | 0.2578 ± 0.0003 | 1.86 ± 0.024 | 1.47 ± 0.027 | 0.5888 ± 0.0049

Variant | FACS-Seq fitted mean (log10) (hypoxanthine [1]) | normalized RNA/DNA level with ligand (log10) (hypoxanthine [2]) | normalized RNA/DNA level without ligand (log10) (hypoxanthine [3]) | FACS-Seq fitted mean (log10) (hypoxanthine [4])
UUCCCG | 0.397 ± 0.063 | 1.919 ± 0.0045 | 1.83 ± 0.046 | 0.514 ± 0.064
UUUAUU | 0.761 ± 0.032 | 1.9334 ± 0.00045 | 1.86 ± 0.047 | 0.799 ± 0.067
CCGAGG | 0.00201 ± 0.0053 | 1.839 ± 0.0063 | 1.37 ± 0.038 | 0.423 ± 0.024
CGGAAG | 0.266 ± 0.007 | 1.905 ± 0.011 | 1.734 ± 0.0046 | 0.361 ± 0.062
GAACUA | 0.557 ± 0.024 | 1.873 ± 0.012 | 1.815 ± 0.0032 | 0.182 ± 0.072
AGUUAC | 0.497 ± 0.083 | 1.89 ± 0.011 | 1.775 ± 0.016 | 0.655 ± 0.14
CAUAAA | 0.609 ± 0.07 | 1.89 ± 0.038 | 1.735 ± 0.01 | 0.597 ± 0.038
UACCAG | 0.0403 ± 0.078 | 1.87 ± 0.015 | 1.589 ± 0.0032 | 0.0509 ± 0.085
UAAGCG | -0.442 ± 0.031 | 1.909 ± 0.0091 | 1.6 ± 0.024 | 0.233 ± 0.018
GCGAUG | 0.314 ± 0.033 | 1.77 ± 0.028 | 1.24 ± 0.092 | 0.754 ± 0.064
AAAAGG | 0.163 ± 0.004 | 1.78 ± 0.06 | 1.26 ± 0.027 | 0.725 ± 0.056
GAGUCA | 0.644 ± 0.03 | 1.906 ± 0.014 | 1.74 ± 0.056 | 0.707 ± 0.032
GUCCAA | 0.669 ± 0.0074 | 1.89 ± 0.065 | 1.79 ± 0.035 | 0.655 ± 0.08
CUGAUA | 0.486 ± 0.026 | 1.877 ± 0.003 | 1.7 ± 0.055 | 0.601 ± 0.13
CGUUGG | 0.31411 ± 0.00021 | 1.966 ± 0.0055 | 1.413 ± 0.0094 | 0.58 ± 0.022
GAUAUA | 0.804 ± 0.057 | 1.91 ± 0.034 | 1.8 ± 0.061 | 0.741 ± 0.0099
ACUAAG | -0.0198 ± 0.018 | 1.833 ± 0.017 | 1.5247 ± 0.0014 | 0.236 ± 0.15
AGCAUA | 0.318 ± 0.075 | 1.9 ± 0.044 | 1.82 ± 0.02 | 0.286 ± 0.19
CAAUAC | 0.32 ± 0.022 | 1.93 ± 0.069 | 1.767 ± 0.01 | 0.507 ± 0.0056
CGAGCA | 0.378 ± 0.011 | 1.942 ± 0.0082 | 1.716 ± 0.012 | 0.543 ± 0.087
AUAAAC | 0.413 ± 0.047 | 1.893 ± 0.0082 | 1.81 ± 0.023 | 0.517 ± 0.15
GUACAA | -0.152 ± 0.025 | 1.91 ± 0.035 | 1.76 ± 0.064 | 0.27 ± 0.051
CGUCAA | 0.13 ± 0.025 | 1.96 ± 0.023 | 1.807 ± 0.016 | 0.3 ± 0.077
AACUAG | 0.232 ± 0.032 | 1.819 ± 0.011 | 1.473 ± 0.0054 | 0.521 ± 0.045

Variant | FACS-Seq fitted mean (log10) (hypoxanthine [1]) | normalized RNA/DNA level with ligand (log10) (hypoxanthine [2]) | normalized RNA/DNA level without ligand (log10) (hypoxanthine [3]) | FACS-Seq fitted mean (log10) (hypoxanthine [4])
CUGAGG | 0.424 ± 0.071 | 1.91 ± 0.03 | 1.58 ± 0.025 | 0.466 ± 0.031
AGUGUA | -0.349 ± 0.012 | 1.9 ± 0.044 | 1.71 ± 0.035 | -0.0909 ± 0.009
UUCUCG | 0.24 ± 0.0079 | 2.01 ± 0.034 | 1.854 ± 0.0077 | 0.362 ± 0.0084
UAUUAA | 0.486 ± 0.054 | 1.89 ± 0.0083 | 1.86 ± 0.022 | 0.724 ± 0.088
UCUAGA | 0.927 ± 0.07 | 1.91 ± 0.028 | 1.69 ± 0.056 | 0.0154 ± 0.086
GACAGU | -0.268 ± 0.11 | 1.926 ± 0.0025 | 1.8 ± 0.045 | 0.146 ± 0.025
GCUAAC | 0.101 ± 0.032 | 1.93 ± 0.036 | 1.66 ± 0.036 | -0.141 ± 0.025
AGGAUA | -0.536 ± 0.015 | 1.9 ± 0.027 | 1.677 ± 0.0074 | -0.0798 ± 0.042
GAUGCU | -0.0807 ± 0.06 | 1.93 ± 0.063 | 1.867 ± 0.012 | 0.0649 ± 0.0092
GACGCU | 0.261 ± 0.12 | 1.94 ± 0.037 | 1.893 ± 0.0077 | 0.508 ± 0.048
GCGGAC | 0.00746 ± 0.015 | 1.75 ± 0.046 | 1.31 ± 0.032 | 0.546 ± 0.037
GUCAGU | 0.34 ± 0.024 | 1.94 ± 0.023 | 1.833 ± 0.0092 | 0.492 ± 0.11
GUUAAC | 0.164 ± 0.008 | 1.95 ± 0.021 | 1.8064 ± 0.0016 | -0.269 ± 0.1
GAGGAA | 0.318 ± 0.036 | 1.88 ± 0.032 | 1.54 ± 0.026 | 0.581 ± 0.073
UGCAAA | 0.613 ± 0.029 | 1.879 ± 0.0083 | 1.787 ± 0.017 | 0.635 ± 0.019
UGAACA | 0.901 ± 0.04 | 1.955 ± 0.014 | 1.86 ± 0.027 | 0.802 ± 0.072
UGAACU | -0.346 ± 0.014 | 1.913 ± 0.013 | 1.89 ± 0.0097 | 0.000122 ± 0.018
AGGGCA | 0.0731 ± 0.046 | 1.97 ± 0.02 | 1.815 ± 0.016 | 0.174 ± 0.034
GUAGUA | 0.68 ± 0.083 | 1.899 ± 0.01 | 1.749 ± 0.014 | 0.725 ± 0.029
AUCGAC | 0.449 ± 0.044 | 1.95 ± 0.063 | 1.81 ± 0.054 | 0.415 ± 0.12
GUGCCG | 0.6409 ± 0.0059 | 1.912 ± 0.0077 | 1.55 ± 0.025 | 0.557 ± 0.12
UGACGU | -0.0405 ± 0.16 | 1.91 ± 0.021 | 1.57 ± 0.064 | 0.226 ± 0.05
GACAAA | 0.0314 ± 0.035 | 1.91 ± 0.058 | 1.774 ± 0.011 | 0.0426 ± 0.012

Reference: the supplement of paper PMC6757056
